What all share (test): purified protein
Common to all, as to conditions: donor substrate; acceptor methyl alpha-D-mannopyranoside

The test system of data set [1] is O=c1ccn([C@@H]2O[C@H](COP(=O)(O)OP(=O)(O)O[C@H]3O[C@@H]([C@H](O)CO)[C@H](O)[C@H]3O)[C@@H](O)[C@H]2O)c(=O)[nH]1.
Data set [2] relates to O=c1ccn([C@@H]2O[C@H](COP(=O)(O)OP(=O)(O)O[C@H]3O[C@H](CO)[C@H](O)[C@H](O)[C@H]3O)[C@@H](O)[C@H]2O)c(=O)[nH]1.
Data set [3] deals with Nc1nc2c(ncn2[C@@H]2O[C@H](COP(=O)(O)OP(=O)(O)O[C@H]3O[C@H](CO)[C@@H](O)[C@H](O)[C@@H]3O)[C@@H](O)[C@H]2O)c(=O)[nH]1.
In data set [4] the test system is Nc1nc2c(ncn2[C@@H]2O[C@H](COP(=O)(O)OP(=O)(O)O[C@H]3O[C@H](CO)[C@@H](O)[C@H](O)[C@H]3O)[C@@H](O)[C@H]2O)c(=O)[nH]1.
Data set [5] concerns O=c1ccn([C@@H]2O[C@H](CO[P@@](=O)(O)O[P@@](=O)(O)O[C@H]3O[C@H](CO)[C@@H](O)[C@H](O)[C@H]3O)[C@@H](O)[C@H]2O)c(=O)[nH]1.

A word on the Km: it is the concentration of substrate that gives half-maximal velocity. As usually defined, the kcat is the number of substrate molecules converted per active site and unit of time at saturation. One may read the kcat/Km as the second-order rate constant that governs catalysis at low substrate concentration.

For the substance LPG1 (Leishmania major), in data set [1], the Km came to 70 ± 70 µM, the kcat worked out at 512.5 ± 1.03 s⁻¹ and the kcat/Km is 6.83e+06 M⁻¹ s⁻¹. Also, in data set [2], the Km turned out to be 230 ± 20 µM, the kcat was found to be 5.33 ± 0.367 s⁻¹ and the kcat/Km is 23300 M⁻¹ s⁻¹.
Regarding LPG1G (Leishmania major), in data set [1], the Km amounted to 30 ± 40 µM, the kcat turned out to be 205.9 ± 0.967 s⁻¹ and the specificity constant (kcat/Km) was determined as 6.56e+06 M⁻¹ s⁻¹. Moreover, in data set [2], the Km is 5 ± 1 µM, the kcat came out at 2.2 ± 0.167 s⁻¹ and the kcat/Km was 466000 M⁻¹ s⁻¹.
LPG1L (Leishmania major): the Km in data set [3] is 32 ± 5 µM; in data set [4], 43 ± 5 µM; in data set [1] it was 20 ± 20 µM; in data set [2], 50 ± 10 µM; in data set [5], 6 ± 1 µM. Besides, the kcat was determined as 1.43 ± 0.1 s⁻¹ in data set [3]; 0.4 ± 0.05 s⁻¹ in data set [4]; 88.3 ± 1.05 s⁻¹ in data set [1]; 7.8 ± 0.833 s⁻¹ in data set [2]; 3.42 ± 0.433 s⁻¹ in data set [5]. For the same substance, the kcat/Km in data set [3] amounted to 47700 M⁻¹ s⁻¹; in data set [4] it was 8330 M⁻¹ s⁻¹; in data set [1], 4.85e+06 M⁻¹ s⁻¹; in data set [2], 165000 M⁻¹ s⁻¹; in data set [5] it was 578000 M⁻¹ s⁻¹.
In the case of LPG1R (Leishmania major), in data set [1], the Km is 550 ± 680 µM, the kcat came to 10.6 ± 1.27 s⁻¹ and the catalytic efficiency (kcat/Km) was found to be 19100 M⁻¹ s⁻¹. For the same substance, in data set [5], the Km was 38 ± 5 µM, the kcat amounted to 5.05 ± 0.55 s⁻¹ and the kcat/Km was determined as 133000 M⁻¹ s⁻¹.

The values above are taken from PMC6279836, “The LPG1x family from Leishmania major is constituted of rare eukaryotic galactofuranosyltransferases with unprecedented catalytic properties” (Scientific Reports, 2018).
